The record followed here is PMC3203869, “Altered Antibiotic Transport in OmpC Mutants Isolated from a Series of Clinical Strains of Multi-Drug Resistant E. coli” (PLoS ONE, 2011).

What all share (experiment): crystal structure; purified OmpC in detergent (0.6% HESO + 0.1% OPOE, or 1% βOG), crystals grown at 20°C or room temperature; trimer in the crystal
In data set [1] the target is OmpC20 (E. coli (clinical isolate)) (UniProt P06996).
Data set [2] addresses OmpC26 (E. coli (clinical isolate)) (UniProt P06996).
Data set [3] concerns the molecule itself.

The term stoichiometry N denotes the number of molecules, sites or subunits per partner or assembly. For the molecule “OmpC20 (from UniProt P06996 22-367) (natural protein)”, the stoichiometry N in data set [1] was found to be 3. Take “OmpC26 (from UniProt P06996 22-367) (natural protein)”: in data set [2], the stoichiometry N is 3.

B1: OmpCO6 (natural protein)
chain: AEVYNKDGNKLDLYGKVDGLHYFSDDKSVDGDQTYMRLGFKGETQVTDQLTGYGQWEYQIQGNAPESENNSWTRVAFAGLKFQDIGSFDYGRNYGVVYDVTSWTDVLPEFGGDTYGSDNFMQQRGNGFATYRNTDFFGLVDGLNFAVQYQGQNGSVSGENDPDFTGHGITNNGRKALRQNGDGVGGSITYDYEGFGVGAAVSSSKRTWDQNNTGLIGTGDRAETYTGGLKYDANNIYLAAQYTQTYNATRVGSLGWANKAQNFEAVAQYQFDFGLRPSVAYLQSKGKNLGVVAGRNYDDEDILKYVDVGATYYFNKNMSTYVDYKINLLDDNQFTRAAGINTDDIVALGLVYQF
notes: gene amplified by PCR and expressed from pHSG575; Trimer in the crystal; also called OmpC from uropathogenic E. coli O6:H1; source: E. coli strain lacking porins, plasmid pHSG575; purified (detergent extraction, POROS-HQ anion exchange, Superdex 200 gel filtration)
With B1, in data set [3], the “stoichiometry N” value came out at 3.
